These results are taken from paper PMC5454392, “Selective BET bromodomain inhibition as an antifungal therapeutic strategy” (Nature Communications, 2017).

Read-outs that look alike come from different tables or passages of the source.

For one assay, the target named is T1, CaBdf1 BD2 (Candida albicans, UniProt Q5A4W8).
T1 construct: made in house; host or cells: E. coli BL21(DE3)
T1 sequence (Q5A4W8 whole entry, looked up): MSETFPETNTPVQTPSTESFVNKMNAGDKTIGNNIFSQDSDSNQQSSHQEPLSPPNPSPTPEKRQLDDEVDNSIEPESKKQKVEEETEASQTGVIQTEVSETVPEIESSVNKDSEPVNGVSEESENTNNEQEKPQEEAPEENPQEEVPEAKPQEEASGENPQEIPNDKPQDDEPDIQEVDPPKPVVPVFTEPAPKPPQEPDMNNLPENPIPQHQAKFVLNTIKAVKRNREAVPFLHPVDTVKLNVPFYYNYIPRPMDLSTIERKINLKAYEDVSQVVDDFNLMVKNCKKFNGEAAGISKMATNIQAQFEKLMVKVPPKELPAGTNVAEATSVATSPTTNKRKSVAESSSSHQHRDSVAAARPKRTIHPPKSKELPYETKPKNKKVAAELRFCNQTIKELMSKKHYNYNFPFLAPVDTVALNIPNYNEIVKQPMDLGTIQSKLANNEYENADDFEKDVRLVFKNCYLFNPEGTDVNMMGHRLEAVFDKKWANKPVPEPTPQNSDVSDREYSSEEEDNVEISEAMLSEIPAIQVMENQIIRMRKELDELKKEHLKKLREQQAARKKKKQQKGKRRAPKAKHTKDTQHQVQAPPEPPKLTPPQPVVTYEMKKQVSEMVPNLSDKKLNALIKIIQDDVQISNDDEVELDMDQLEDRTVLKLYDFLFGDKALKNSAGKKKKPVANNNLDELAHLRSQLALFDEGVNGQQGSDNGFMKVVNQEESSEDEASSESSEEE
It is filed as binding. The settings on record: wild-type BD2; for CaBdf1 BD2 Normalized (0 to 100%) WT: normalized array signal; for CaBdf1 BD2 Raw data WT: peptide array signal. As to the method:
(§1) In short, arrays were blocked and incubated with 1 μM of purified CaBdf1 BD1 or BD2. Arrays were incubated with recombinant BDs for 2 h at 4 °C in binding buffer (Tris-HCl 50 mM pH 7.4, NP-40 0.1%, NaCl 150 mM, glycerol 10%). […] Assays were performed in duplicate.

The target in a further assay is T2, CaBdf1 BD1 (Candida albicans, UniProt Q5A4W8).
T2 construct: made in house; host or cells: E. coli BL21(DE3)
T2 sequence (Q5A4W8 whole entry, looked up): T1 sequence (Q5A4W8 whole entry, looked up)
Type of assay: binding. The note with it: wild-type BD1; for CaBdf1 BD1 Normalized (0 to 100%) WT: normalized array signal; for CaBdf1 BD1 Raw data WT: peptide array signal. As to the method:
as §1

The target in another assay is T3, CaBdf1 BD2 Y425F (Candida albicans, UniProt Q5A4W8, Y425F).
T3 construct: made in house; host or cells: E. coli BL21(DE3), inferred from the wild-type GST construct
Briefly: Histone peptide microarray binding, YF mutant. Details: species or system C. albicans. The settings on record: YF mutant BD2; for CaBdf1 BD2 Normalized (0 to 100%) YF mutant: normalized array signal; for CaBdf1 BD2 Raw data YF mutant: peptide array signal. As to the method: (§2) In short, arrays were blocked and incubated with 1 μM of purified CaBdf1 BD1 or BD2. Arrays were incubated with recombinant BDs for 2 h at 4 °C in binding buffer (Tris-HCl 50 mM pH 7.4, NP-40 0.1%, NaCl 150 mM, glycerol 10%). […] Assays were performed in duplicate. Images were acquired on a Bio-Rad ChemiDoc XRS Imaging machine and data were quantified using the array analyser software provided by Active Motif.

The next assay addresses T4, CaBdf1 BD1 Y248F (Candida albicans, UniProt Q5A4W8, Y248F).
T4 construct: made in house; host or cells: E. coli BL21(DE3), inferred from the wild-type GST construct
Briefly: Histone peptide microarray binding, YF mutant. More on the design: species or system C. albicans. The settings on record: YF mutant BD1; for CaBdf1 BD1 Normalized (0 to 100%) YF mutant: normalized array signal; for CaBdf1 BD1 Raw data YF mutant: peptide array signal. As to the method:
as §2
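For CaBdf1 BD1 Normalized (0 to 100%) WT in this document: normalized to spotted c-myc peptide positive control signal.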
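For CaBdf1 BD1 Normalized (0 to 100%) YF mutant in this document: normalized to spotted c-myc peptide positive control signal.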
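For CaBdf1 BD2 Normalized (0 to 100%) WT in this document: normalized to spotted c-myc peptide positive control signal.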
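For CaBdf1 BD2 Normalized (0 to 100%) YF mutant in this document: normalized to spotted c-myc peptide positive control signal.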

T3 sequence (Q5A4W8 361-501 Y425F): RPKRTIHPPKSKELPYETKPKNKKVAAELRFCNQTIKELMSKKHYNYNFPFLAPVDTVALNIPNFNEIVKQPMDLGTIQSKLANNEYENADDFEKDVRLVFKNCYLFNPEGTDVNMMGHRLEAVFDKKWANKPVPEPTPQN
T4 sequence (Q5A4W8 193-327 Y248F): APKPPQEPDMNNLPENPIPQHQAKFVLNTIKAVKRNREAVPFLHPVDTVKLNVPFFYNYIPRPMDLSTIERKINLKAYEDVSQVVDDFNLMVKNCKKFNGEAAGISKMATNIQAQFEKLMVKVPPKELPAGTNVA

As to “A Rme2s T Kac Q T A R Kme1 S T G G K A P R K Q”, the “CaBdf1 BD2 Normalized (0 to 100%) WT” value with CaBdf1 BD2 is given as 0.333%. Besides, the “CaBdf1 BD2 Raw data WT” value with CaBdf1 BD2 (first of two raw-data columns) is on record as 0.01304; with CaBdf1 BD2, 0.004804. Further, in the assay with CaBdf1 BD1, the “CaBdf1 BD1 Normalized (0 to 100%) WT” value is on record as 0.798%. Moreover, the results for the “CaBdf1 BD1 Raw data WT” value with CaBdf1 BD1 (first of two raw-data columns) and in the assay with CaBdf1 BD1 were 0.009621 and 0.005879, respectively. Further, the “CaBdf1 BD2 Normalized (0 to 100%) YF mutant” value with CaBdf1 BD2 Y425F is recorded as 0.244%. For the same sequence, the “CaBdf1 BD2 Raw data YF mutant” value with CaBdf1 BD2 Y425F (first of two raw-data columns) and in the assay with CaBdf1 BD2 Y425F was 0.002427 throughout. The “CaBdf1 BD1 Normalized (0 to 100%) YF mutant” value in the assay with CaBdf1 BD1 Y248F is 0.727%. Moreover, the entries for the “CaBdf1 BD1 Raw data YF mutant” value in the assay with CaBdf1 BD1 Y248F (first of two raw-data columns) and with CaBdf1 BD1 Y248F were 0.007202 and 0.002743, respectively.

For “A Rme2s T Kac Q T A R Kme3 S T G G K A P R K Q”, in the assay with CaBdf1 BD2, the “CaBdf1 BD2 Normalized (0 to 100%) WT” value came to 0.259% and the “CaBdf1 BD2 Raw data WT” value was found to be 0.0006863. Moreover, the “CaBdf1 BD2 Raw data WT” value in the assay with CaBdf1 BD2 (first of two raw-data columns) amounted to 0.01579. In addition, in the assay with CaBdf1 BD1, the “CaBdf1 BD1 Normalized (0 to 100%) WT” value is 0.616% and the “CaBdf1 BD1 Raw data WT” value was found to be 0.006948. Further, the “CaBdf1 BD1 Raw data WT” value in the assay with CaBdf1 BD1 (first of two raw-data columns) came out at 0.005879. In addition, in the assay with CaBdf1 BD2 Y425F, the “CaBdf1 BD2 Normalized (0 to 100%) YF mutant” value was found to be 0.293%. In the assay with CaBdf1 BD1 Y248F, the “CaBdf1 BD1 Normalized (0 to 100%) YF mutant” value is 0.727% and the “CaBdf1 BD1 Raw data YF mutant” value turned out to be 0.004458. Besides, the “CaBdf1 BD1 Raw data YF mutant” value in the assay with CaBdf1 BD1 Y248F (first of two raw-data columns) was 0.007202.

With “A Rme2s T Kac Q T A Rme2s K S T G G K A P R K Q”, in the assay with CaBdf1 BD2, the “CaBdf1 BD2 Normalized (0 to 100%) WT” value was 0.518% and the “CaBdf1 BD2 Raw data WT” value is 0.01235. Further, in the assay with CaBdf1 BD1, the “CaBdf1 BD1 Normalized (0 to 100%) WT” value is given as 0.363% and the “CaBdf1 BD1 Raw data WT” value amounted to 0.005345. In addition, the “CaBdf1 BD1 Raw data WT” value in the assay with CaBdf1 BD1 (first of two raw-data columns) amounted to 0.003741. In addition, in the assay with CaBdf1 BD2 Y425F, the “CaBdf1 BD2 Normalized (0 to 100%) YF mutant” value came out at 0.293% and the “CaBdf1 BD2 Raw data YF mutant” value turned out to be 0.003398. Moreover, in the assay with CaBdf1 BD1 Y248F, the “CaBdf1 BD1 Normalized (0 to 100%) YF mutant” value came to 0.485% and the “CaBdf1 BD1 Raw data YF mutant” value is reported as 0.003086. In addition, in the assay with CaBdf1 BD1 Y248F (first of two raw-data columns), the “CaBdf1 BD1 Raw data YF mutant” value is on record as 0.004801.

Take “A Rme2s T Kme1 Q T A R Kme1 S T G G K A P R K Q”: in the assay with CaBdf1 BD2, the “CaBdf1 BD2 Normalized (0 to 100%) WT” value came to 0.518%. In addition, the entries for the “CaBdf1 BD2 Raw data WT” value with CaBdf1 BD2 (first of two raw-data columns) and with CaBdf1 BD2 were 0.01579 and 0.005491, respectively. In the assay with CaBdf1 BD1, the “CaBdf1 BD1 Normalized (0 to 100%) WT” value came to 0.29%. The figures for the “CaBdf1 BD1 Raw data WT” value with CaBdf1 BD1 (first of two raw-data columns) and in the assay with CaBdf1 BD1 were 0.003741 and 0.004276, respectively. Also, in the assay with CaBdf1 BD2 Y425F, the “CaBdf1 BD2 Normalized (0 to 100%) YF mutant” value turned out to be 0.342%. In addition, the “CaBdf1 BD2 Raw data YF mutant” value with CaBdf1 BD2 Y425F (first of two raw-data columns) came out at 0.003398. In addition, the “CaBdf1 BD1 Normalized (0 to 100%) YF mutant” value with CaBdf1 BD1 Y248F turned out to be 0.658%. The figures for the “CaBdf1 BD1 Raw data YF mutant” value in the assay with CaBdf1 BD1 Y248F (first of two raw-data columns) and in the assay with CaBdf1 BD1 Y248F were 0.006516 and 0.005144, respectively.

For the sequence “A Rme2s T Kme1 Q T A R Kme3 S T G G K A P R K Q”, the “CaBdf1 BD2 Normalized (0 to 100%) WT” value in the assay with CaBdf1 BD2 is listed as 0.259%. The entries for the “CaBdf1 BD2 Raw data WT” value in the assay with CaBdf1 BD2 (first of two raw-data columns) and in the assay with CaBdf1 BD2 were 0.0151 and 0.001373, respectively. Further, the “CaBdf1 BD1 Normalized (0 to 100%) WT” value with CaBdf1 BD1 is reported as 0.326%. For the same sequence, the entries for the “CaBdf1 BD1 Raw data WT” value in the assay with CaBdf1 BD1 (first of two raw-data columns) and in the assay with CaBdf1 BD1 were 0.00481 and 0.003741, respectively. Moreover, in the assay with CaBdf1 BD2 Y425F, the “CaBdf1 BD2 Normalized (0 to 100%) YF mutant” value is on record as 0.195%. For the same sequence, the “CaBdf1 BD1 Normalized (0 to 100%) YF mutant” value with CaBdf1 BD1 Y248F came out at 0.727%. The figures for the “CaBdf1 BD1 Raw data YF mutant” value with CaBdf1 BD1 Y248F (first of two raw-data columns) and with CaBdf1 BD1 Y248F were 0.007202 and 0.002743, respectively.

“A Rme2s T Kme1 Q T A Rme2s K S T G G K A P R K Q”: in the assay with CaBdf1 BD2, the “CaBdf1 BD2 Normalized (0 to 100%) WT” value came to 0.444% and the “CaBdf1 BD2 Raw data WT” value is reported as 0.01304. Also, in the assay with CaBdf1 BD2 (first of two raw-data columns), the “CaBdf1 BD2 Raw data WT” value amounted to 0.006863. Moreover, in the assay with CaBdf1 BD1, the “CaBdf1 BD1 Normalized (0 to 100%) WT” value is on record as 0.326% and the “CaBdf1 BD1 Raw data WT” value amounted to 0.004276. Besides, in the assay with CaBdf1 BD1 (first of two raw-data columns), the “CaBdf1 BD1 Raw data WT” value was 0.004276. In the assay with CaBdf1 BD2 Y425F, the “CaBdf1 BD2 Normalized (0 to 100%) YF mutant” value is given as 0.147% and the “CaBdf1 BD2 Raw data YF mutant” value is 0.001456. Moreover, the “CaBdf1 BD2 Raw data YF mutant” value with CaBdf1 BD2 Y425F (first of two raw-data columns) stood at 0.001456. Also, in the assay with CaBdf1 BD1 Y248F, the “CaBdf1 BD1 Normalized (0 to 100%) YF mutant” value turned out to be 0.45% and the “CaBdf1 BD1 Raw data YF mutant” value worked out at 0.01166. Moreover, the “CaBdf1 BD1 Raw data YF mutant” value with CaBdf1 BD1 Y248F (first of two raw-data columns) was determined as 0.004458.
